Test results: the RNAGym collection of RNA variant scans (doi:10.7554/elife.80360)

B1: Twister Ribozyme (parent)
chain: AACACUGCCAAUGCCGGUCCCAAGCCCGGAUAAAAGUGGAGGGGGCGG

Variants of: B1
Assay: self-cleavage, relative activity (ratio to wild type); higher = more cleavage; co-transcriptional
For C3G C15U, the self-cleavage was 0.389.
Work on C3G C19G yielded a self-cleavage of 0.107.
With C3G C19U the self-cleavage was 0.265.
For C3G C20G, the self-cleavage was 0.0675.
C3G C20U gave a self-cleavage of 0.295.
Work on C3G C21A yielded a self-cleavage of 0.0645.
Work on C3G C25G yielded a self-cleavage of 0.109.
With C3G C25U the self-cleavage was 0.317.
Variant C3G C26A has a self-cleavage of 0.121.
For C3G C26U, the self-cleavage was 0.137.
For C3G C27G, the self-cleavage was 0.0859.
C3G C27U showed a self-cleavage of 0.327.
C3G G7U showed a self-cleavage of 0.057.
C3G G13U gave a self-cleavage of 0.0808.
C3G G16A gave a self-cleavage of 0.271.
Variant C3G G16C has a self-cleavage of 0.123.
Variant C3G G16U has a self-cleavage of 0.608.
Variant C3G G17C has a self-cleavage of 0.0532.
For C3G G17U, the self-cleavage was 0.0757.
In the case of C3G G24C, the self-cleavage is reported as 0.0852.
Work on C3G G28A yielded a self-cleavage of 0.239.
For C3G G28C, the self-cleavage was 0.167.
For C3G G28U, the self-cleavage was 0.253.
For C3G G29C, the self-cleavage was 0.236.
For C3G G29U, the self-cleavage was 0.394.
C3G G36A gave a self-cleavage of 0.124.
For C3G G36U, the self-cleavage was 0.144.
C3G G41A showed a self-cleavage of 0.209.
Variant C3G G41C has a self-cleavage of 0.0954.
Work on C3G G42A yielded a self-cleavage of 0.111.
In the case of C3G G42C, the self-cleavage is reported as 0.128.
Work on C3G G42U yielded a self-cleavage of 0.118.
With C3G G44C the self-cleavage was 0.345.
C3G G44U gave a self-cleavage of 0.425.
C3G G45A gave a self-cleavage of 0.479.
In the case of C3G G45C, the self-cleavage is reported as 0.207.
With C3G G47A the self-cleavage was 0.275.
In the case of C3G G47U, the self-cleavage is reported as 0.361.
Work on C3G G48A yielded a self-cleavage of 0.405.
C3G G48C showed a self-cleavage of 0.65.
Work on C3G G48U yielded a self-cleavage of 0.549.
Work on C3G U12A yielded a self-cleavage of 0.658.
C3G U12C gave a self-cleavage of 0.447.
For C3G U12G, the self-cleavage was 0.4.
With C3G U18C the self-cleavage was 0.147.
For C3G U31G, the self-cleavage was 0.44.
With C3U the self-cleavage was 0.48.
C3U A4G gave a self-cleavage of 0.183.
In the case of C3U A10C, the self-cleavage is reported as 0.61.
For C3U A10G, the self-cleavage was 0.474.
Work on C3U A10U yielded a self-cleavage of 0.584.
C3U A22C gave a self-cleavage of 0.549.
C3U A22G gave a self-cleavage of 0.0518.
C3U A22U gave a self-cleavage of 0.255.
For C3U A23C, the self-cleavage was 0.12.
C3U A30C showed a self-cleavage of 0.335.
C3U A30G showed a self-cleavage of 0.422.
C3U A32C gave a self-cleavage of 0.532.
For C3U A32G, the self-cleavage was 0.369.
With C3U A32U the self-cleavage was 0.402.
Work on C3U A33C yielded a self-cleavage of 0.476.
Variant C3U A33U has a self-cleavage of 0.471.
C3U A34G gave a self-cleavage of 0.153.
C3U A34U gave a self-cleavage of 0.314.
For C3U A35G, the self-cleavage was 0.136.
With C3U A40C the self-cleavage was 0.0947.
With C3U C8A the self-cleavage was 0.17.
C3U C8G showed a self-cleavage of 0.0577.
Variant C3U C8U has a self-cleavage of 0.216.
In the case of C3U C9A, the self-cleavage is reported as 0.147.
Variant C3U C9G has a self-cleavage of 0.12.
C3U C14A gave a self-cleavage of 0.351.
Variant C3U C14G has a self-cleavage of 0.0572.
In the case of C3U C14U, the self-cleavage is reported as 0.376.
With C3U C15G the self-cleavage was 0.125.
Work on C3U C15U yielded a self-cleavage of 0.335.
C3U C19G showed a self-cleavage of 0.106.
With C3U C20A the self-cleavage was 0.07.
C3U C20G showed a self-cleavage of 0.0703.
Work on C3U C21U yielded a self-cleavage of 0.0611.
Variant C3U C25A has a self-cleavage of 0.0634.
Work on C3U C25G yielded a self-cleavage of 0.0982.
For C3U C26A, the self-cleavage was 0.148.
C3U C46G showed a self-cleavage of 0.526.
Variant C3U C46U has a self-cleavage of 0.503.
Work on C3U G7A yielded a self-cleavage of 0.0905.
In the case of C3U G7C, the self-cleavage is reported as 0.0424.
C3U G13A gave a self-cleavage of 0.402.
C3U G17C gave a self-cleavage of 0.0683.
In the case of C3U G17U, the self-cleavage is reported as 0.0762.
For C3U G24A, the self-cleavage was 0.0721.
In the case of C3U G28U, the self-cleavage is reported as 0.325.
Variant C3U G29C has a self-cleavage of 0.277.
Work on C3U G29U yielded a self-cleavage of 0.464.
C3U G36A showed a self-cleavage of 0.115.
With C3U G38U the self-cleavage was 0.409.
Work on C3U G39U yielded a self-cleavage of 0.066.
Work on C3U G41A yielded a self-cleavage of 0.117.
C3U G41C gave a self-cleavage of 0.099.
C3U G42A gave a self-cleavage of 0.0772.
Work on C3U G42U yielded a self-cleavage of 0.0877.
For C3U G44A, the self-cleavage was 0.382.
Work on C3U G44U yielded a self-cleavage of 0.436.
For C3U G47C, the self-cleavage was 0.233.
Work on C3U G48U yielded a self-cleavage of 0.562.
C3U U6G gave a self-cleavage of 0.106.
Work on C3U U18A yielded a self-cleavage of 0.158.
With C3U U18C the self-cleavage was 0.215.
C3U U18G showed a self-cleavage of 0.0621.
With C3U U31C the self-cleavage was 0.391.
Work on C3U U31G yielded a self-cleavage of 0.445.
For C3U U37C, the self-cleavage was 0.172.
Work on C3U U37G yielded a self-cleavage of 0.406.
Work on A4C A10C yielded a self-cleavage of 0.152.
With A4C A10G the self-cleavage was 0.334.
In the case of A4C A11C, the self-cleavage is reported as 0.0104.
In the case of A4C A11U, the self-cleavage is reported as 0.16.
Work on A4C A22G yielded a self-cleavage of 0.0686.
Work on A4C A23C yielded a self-cleavage of 0.0177.
Work on A4C A23U yielded a self-cleavage of 0.0688.
Variant A4C A30C has a self-cleavage of 0.0841.
With A4C A32C the self-cleavage was 0.101.
A4C A33C showed a self-cleavage of 0.108.
A4C A33G showed a self-cleavage of 0.146.
A4C A33U showed a self-cleavage of 0.152.
Variant A4C A34G has a self-cleavage of 0.0947.
A4C A34U gave a self-cleavage of 0.0292.
Work on A4C A35G yielded a self-cleavage of 0.451.
A4C A40C showed a self-cleavage of 0.0698.
A4C A40G gave a self-cleavage of 0.0825.
In the case of A4C A40U, the self-cleavage is reported as 0.0853.
A4C C5G showed a self-cleavage of 0.0446.
Work on A4C C5U yielded a self-cleavage of 0.701.
In the case of A4C C8A, the self-cleavage is reported as 0.119.
Variant A4C C8U has a self-cleavage of 0.108.
For A4C C9G, the self-cleavage was 0.107.
In the case of A4C C9U, the self-cleavage is reported as 0.0772.
Work on A4C C14A yielded a self-cleavage of 0.33.
For A4C C14U, the self-cleavage was 0.257.
Work on A4C C15G yielded a self-cleavage of 0.0431.
A4C C20A gave a self-cleavage of 0.0653.
Work on A4C C20G yielded a self-cleavage of 0.0372.
A4C C21A showed a self-cleavage of 0.105.
A4C C21G showed a self-cleavage of 0.0577.
Variant A4C C21U has a self-cleavage of 0.0583.
A4C C25A showed a self-cleavage of 0.0458.
For A4C C25G, the self-cleavage was 0.0395.
For A4C C26A, the self-cleavage was 0.0425.
For A4C C27A, the self-cleavage was 0.0944.
A4C C27U showed a self-cleavage of 0.112.
A4C C46U showed a self-cleavage of 0.163.
In the case of A4C G7A, the self-cleavage is reported as 0.0506.
With A4C G7U the self-cleavage was 0.0643.
Work on A4C G16A yielded a self-cleavage of 0.0955.
A4C G17C showed a self-cleavage of 0.0696.
Work on A4C G28C yielded a self-cleavage of 0.0895.
Work on A4C G28U yielded a self-cleavage of 0.104.
In the case of A4C G29A, the self-cleavage is reported as 0.168.
A4C G29C showed a self-cleavage of 0.0879.
With A4C G29U the self-cleavage was 0.145.
Work on A4C G36A yielded a self-cleavage of 0.103.
Variant A4C G36C has a self-cleavage of 0.0766.
For A4C G38A, the self-cleavage was 0.142.
Variant A4C G38C has a self-cleavage of 0.61.
A4C G38U showed a self-cleavage of 0.591.
Variant A4C G39C has a self-cleavage of 0.0869.
A4C G39U showed a self-cleavage of 0.0723.
